Laboratory results taken from patent US20220389111A1 (SHANGHAI EPIMAB BIOTHERAPEUTICS, published 2022).
Numbering of substitutions follows the chain as printed.

B1: mAb638 (antibody, V domains shown)
VH: QVQLQQPGTELVKPGASVKLSCKASGYTFTSFWMHWVKQRPGQGLEWIGNINPRNGATKYNEKFRSKVTLTADKTSSTAYMHLSSLTSEDSAVYYCAREDYDEIYYAMDSWGQGTSVTVSS
VL: QNVLTQSPAIMSASPGEKVTMTCSASSSVIYMYWFQQKPGSSPRVLIYDTSNLASGVPARFSGSGSGTSYSLTISRMEAEDAATYYCQQWSTYPLTFGAGTKLELK
notes: mouse anti-human CD39 hybridoma mAb, IgG1, κ
B2: mAb629 (antibody, V domains shown)
VH: QVQLKQSGPGLVRPSQSLSITCTVSGFSLTRFGIHWVRQSPGKGLEWLGVIWGGGSTDYDAGFISRLTITKDHSKSQVLFKINSLEADDTAMYYCATKDDDYLEAWFAHWGQGTLVTVSA
VL: NIVMTQSPKSVSMSVGERVTLSCKASENVGTYVSWYQQKSERSPRLLIYGASSRYTGVPDRFTGSGSATDFTLTISSVQAEDLADYHCGQSYSYPYTFGGGTKLEIK
notes: mouse anti-human CD39 hybridoma mAb, IgG2a, κ
B3: mAb636 (antibody, V domains shown)
VH: QVQLQQPGTELVMPGASVTLSCKASGYSFISYWMHWVKQRPGQGLEWIGEIDPSDDYTNYNQNFKGKATLTVDRSSSTAYMQLNSLTSEDSAVYYCAREENGIYYYNKGYLDVWGTGTTVTVSS
VL: DIVMTQTAFSNPVTLGTSASISCRSSKSLLHSNGITYLYWYLQKPGQSPQVLIYQMSNLASGVPDRFSCSGSGTDFTLRITRVEAEDVGFYYCAQNLELPYTFGGGTKLEMK
notes: as for B2

Experiments:
[1] = target: T1, human CD39 on the cell membrane (CHO-K1-human CD39 stable cell line); SK-MEL-28 melanoma cells; human CD4+ T … (human, UniProt P49961 1-510); experiment: cell-based or functional assay
T1 sequence: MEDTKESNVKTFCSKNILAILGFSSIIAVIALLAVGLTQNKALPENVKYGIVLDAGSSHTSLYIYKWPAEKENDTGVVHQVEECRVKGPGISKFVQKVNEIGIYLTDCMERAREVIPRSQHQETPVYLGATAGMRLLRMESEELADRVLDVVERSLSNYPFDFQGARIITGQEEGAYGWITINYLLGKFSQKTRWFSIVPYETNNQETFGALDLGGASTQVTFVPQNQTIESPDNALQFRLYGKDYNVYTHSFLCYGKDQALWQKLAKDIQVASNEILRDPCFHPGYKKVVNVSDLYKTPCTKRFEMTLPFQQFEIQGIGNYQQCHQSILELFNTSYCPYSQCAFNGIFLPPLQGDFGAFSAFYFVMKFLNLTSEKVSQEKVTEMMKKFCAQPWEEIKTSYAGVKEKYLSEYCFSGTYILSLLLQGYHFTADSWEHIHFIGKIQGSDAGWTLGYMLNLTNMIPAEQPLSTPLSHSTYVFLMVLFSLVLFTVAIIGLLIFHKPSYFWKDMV

[2] = target: T2, huCD39-ECD-His (human, UniProt P49961 38-478); experiment: SPR (Biacore T200), antibody captured by anti-mouse IgG Fc, antigen in solution
T2 construct: also called C-terminally hexahistidine-tagged human CD39 extracellular domain
T2 sequence: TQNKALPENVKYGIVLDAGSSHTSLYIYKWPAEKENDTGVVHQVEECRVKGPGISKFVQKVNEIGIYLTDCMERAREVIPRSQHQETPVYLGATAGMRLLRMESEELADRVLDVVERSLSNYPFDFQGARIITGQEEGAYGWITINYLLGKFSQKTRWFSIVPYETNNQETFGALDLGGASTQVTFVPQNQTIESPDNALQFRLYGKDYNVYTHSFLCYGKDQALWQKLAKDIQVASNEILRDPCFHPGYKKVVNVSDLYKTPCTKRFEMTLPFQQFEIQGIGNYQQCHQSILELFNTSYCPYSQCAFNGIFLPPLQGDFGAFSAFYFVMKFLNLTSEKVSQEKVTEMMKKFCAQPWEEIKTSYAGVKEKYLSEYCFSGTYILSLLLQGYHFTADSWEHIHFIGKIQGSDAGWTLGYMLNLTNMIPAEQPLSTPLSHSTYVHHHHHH
Procedure: The binding kinetics of purified antibodies was determined by surface plasmon resonance-based measurements using a Biacore T200 instrument (GE Healthcare). Briefly, goat anti-mouse IgG Fc polyclonal antibody (Genway) was directly immobilized across a biosensor chip, and antibody samples were injected over reaction matrices at a flow rate of 5 μl/min. The association and dissociation rate constants, kₒₙ (M⁻¹s⁻¹) and koff(s⁻¹), respectively, were determined by making kinetic binding measurements of anti-CD39 antibody capture at five different concentrations of a recombinant human or mouse CD39 target protein (huCD39-ECD-His or muCD39-ECD-His). The equilibrium dissociation constant KD (M) of the reaction between antibodies and related target proteins was then calculated from the kinetic rate constants using the formula: KD=koff/kₒₙ. Binding affinities for murine anti-human CD39 antibodies mAb635 and mAb638 are shown in Table 9; binding affinity for rat anti-mouse CD39 antibody mAb605 is shown in Table 10.

[3] = target: T3, cynomolgus monkey CD39 on CHO-K1 cells (cynomolgus monkey, UniProt A0A7N9DGH8 1-510); experiment: FACS on CHO-K1-cyno CD39 cells
T3 construct: whole, on cells; also called CHO-K1-cyCD39; CHO-K1-cyno CD39
T3 sequence: T1 sequence with V47I, F94Y, V221I, I230T, I329V, K368N, A391S, F489V, T490I
Procedure: (§1) The ability of the purified antibodies to bind to cell membrane human CD39, cynomolgus monkey CD39, or mouse CD39 was determined by FACS analysis. CHO-K1 cells stably transfected to overexpress human CD39, cynomolgus monkey CD39, or mouse CD39 (CHO-K1-huCD39 cells, CHO-K1-cyCD39 cells, and CHOK1-muCD39 cells) were generated for use in this assay. Briefly, SK-MEL-28 melanoma cells (ATCC) or CD39 overexpressing stable CHO cell lines were resuspended in PBS containing 2% FBS (FACS buffer) and seeded at 1-5×10⁵ cells/well into U-bottomed plates. Anti-CD39 mAbs or isotype control antibodies diluted in FACS buffer were added to the wells and incubated for 1 hour at 4° C. After washing with FACS buffer, 1:1000 diluted Fluorescence-labeled secondary antibody (Life Technologies/ThermoFisher Scientific) were added and incubated for 30 min. at 4° C. Unbound secondary mAb was removed by washing with FACS buffer three times, and the samples were then read on a FACS instrument. The data were processed by GraphPad software.

[4] = target: T1, human CD39 on the cell membrane …; experiment: cell-based or functional assay; remark: listed apart in the source
[5] = target: T1, human CD39 on the cell membrane …; experiment: FACS on CHO-K1-human CD39 cells
Procedure: as §1

[6] = target: T2, huCD39-ECD-His; experiment: BLI (Octet RED96), antibody captured on AMC biosensor, antigen in solution
Procedure: Anti-CD39 antibodies were characterized for affinities and binding kinetics using the Octet®RED96 biolayer interferometry system (Pall FortéBio LLC). Purified anti-CD39 antibodies were captured by Anti-Mouse IgG Fc Capture (AMC) biosensors or Anti-Human IgG Fc Capture (AHC) biosensors at a concentration of 100 nM for 30 seconds. Biosensors were then dipped into running buffer (1X pH7.2 PBS, 0.05% Tween 20, 0.1% BSA) for 60 seconds to check baseline. Binding was measured by dipping sensors into purified recombinant human CD39 protein, 3-fold serial diluted from 200 nM, for 120 seconds. Dissociation was followed by dipping sensors into running buffer for 600 seconds. The association and dissociation curves were fitted to a 1:1 Langmuir binding model using Fortebio Data Analysis software (Pall FortéBio LLC).

| Binder | IC50 (read off the curve), cell-surface huCD39 ATPase activity [1] [nM] | Kd [2] [nM] | koff [2] [s⁻¹] | kon [2] [M⁻¹ s⁻¹] | EC50 [3] [nM] | IC50 (read off the curve), cell-surface hCD39 ATPase activity [4] [nM] | EC50 [5] [nM] | Kd [6] [nM] | koff [6] [s⁻¹] | kon [6] [M⁻¹ s⁻¹] |
| --- | --- | --- | --- | --- | --- | --- | --- | --- | --- | --- |
| B1 | ~0.4 | 0.203 | 0.000117 | 574000 | 19.2 | ~0.4 | 3.34 | 2.27 | 0.000426 | 188000 |
| B2 | ~0.07 |  |  |  | 2.18 |  | 1.92 |  |  |  |
| B3 |  |  |  |  | 10.6 |  | 12.7 |  |  |  |
